In US20200087400A1 (EUREKA THERAPEUTICS, published 2020):
Positions count from the first letter of the chain named.

B1: PSA146/HLA-A*02:01-specific scFv phage clone #24 (scFv, V domains shown)
VH: QVQLVQSGAEVKKPGASVKVSCKASGYTFTSYYMHWVRQAPGKGLEWMGGFDPEDGETIYAQKFQGRVTMTEDTSTDTAYMELSSLRSEDTAVYYCARYPWDHWGQGTLVTVSS
VL: QAVVTQEPSLTVSPGGTVTLTCASSTGAVTSGYYPNWFQQKPGQAPRPLIYSTNNKHSWTPARFSGSLLGGKAALTLSGVQPEDEAEYYCLLYYGGQGVFGGGTKLTVLG
B2: PSA146/HLA-A*02:01-specific scFv phage clone #20 (scFv, V domains shown)
VH: EVQLVQSGAEVKKPGESLKISCKGSGYSFTSYRIGWVRQMPGKGLEWMGIIYPGDSDTRYSPSFQGQVTISADKSISTAYLQWSSLKASDTAMYYCARWGLSWDGWGVTDYWGQGTLVTVSS
VL: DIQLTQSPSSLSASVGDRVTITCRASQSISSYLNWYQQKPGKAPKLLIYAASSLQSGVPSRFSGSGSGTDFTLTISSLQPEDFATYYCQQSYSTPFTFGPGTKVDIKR
B3: PSA146/HLA-A*02:01-specific scFv phage clone #21 (scFv, V domains shown)
VH: B1 VH with P100N, W101Y, H103T
VL: QAVVTQEPSLTVSPGGTVTLTCASSTGTVTSTYYPNWFQQKPGQAPRALIYSTSNRHSWTPARFSGSLLGGKAALTVSGVQPDDEAEYYCLVFYGGVWVFGGGTKLTVLG
B4: PSA146/HLA-A*02:01-specific scFv phage clone #22 (scFv, V domains shown)
VH: EVQLVQSGAEVKKPGESLKISCKGSGYSFTSYWIGWVRQMPGKGLEWMGRIDPSDSYTNYSPSFQGHVTISADKSISTAYLQWSSLKASDTAMYYCARSFGAGYDSWGQGTLVTVSS
VL: QSALTQPASVSGSPGQSITISCTGTSSDVGGYNYVSWYQQHPGKAPKLMIYDVSKRPSGVSNRFSGSKSGNTASLTISGLQAEDEADYYCSSYTSSSRYVFGTGTKVTVLG
B5: PSA146/HLA-A*02:01-specific scFv phage clone #26 (scFv, V domains shown)
VH: QVQLVQSGAEVKKPGASVKVSCKTSGYTFTNYGISWVRQAPGQGLEWMGWISAYNGNTNYAQNLQGRVTMTTDTSTSTAYMELRSLRSDDTAVYYCARSSYYGYLSDGWGQGTLVTVSS
VL: LPVLTQPPSASGTPGQRVTISCSGSSSNIGTNYVYWYQQLPGTAPKLLIYSNNQRPSGVPDRFSGSKSGTSASLAISGLRSEDEADYYCAAWDDSLSGLYVFGTGTKVTVLG

Target: T1, control peptide A2E-1/HLA-A*02:01 complex on T2 cells (member of the P19 mixture) (human)
T1 construct: Loaded on T2 cells as part of the mixture of 19 control peptides
Test: flow cytometry, phage on T2 cells
Excerpt: (§1) Binding of the phage clones was detected by HRP-conjugated anti-M13 antibodies and developed using HRP substrate. The absorbance was read at 450 nm. […] Then, unique antibody clones were identified through DNA sequencing of ELISA-positive clones. […] T2 cells loaded with different peptides and β2M were first stained with purified scFv phage clones, followed by staining with a mouse anti-M13 mAb, and finally R-PE conjugated horse anti-mouse IgG from Vector Labs. Each step of the staining was performed for between 30-60 minutes on ice and the cells were washed twice between stainings. All 16 clones recognized PSA146-loaded T2 cells specifically. FIG. 3 provides examples of PSA146/HLA-A*02:01 specific phage clone binding to peptide-loaded T2 cells through FACS. […] The negative control scFv phage clone presents a human antibody previously found not to bind any cell-surface human antigens.
(§2) To identify additional PSA146/HLA-A*02:01 specific phage clones.

Row | Binder | binding result
1 | B1 | no binding
2 | B2 | no binding
3 | B3 | no binding
4 | B4 | no binding
5 | B5 | no binding

Target: T2, control peptide A2E-2/HLA-A*02:01 complex on T2 cells (member of the P19 mixture) (human)
T2 construct: Loaded on T2 cells as part of the mixture of 19 control peptides
Test: flow cytometry, phage on T2 cells
Excerpt: as §1, §2

Row | Binder | binding result
6 | B1 | no binding
7 | B2 | no binding
8 | B3 | no binding
9 | B5 | no binding

Target: T3, control peptide A2E-3/HLA-A*02:01 complex on T2 cells (member of the P19 mixture) (human)
T3 construct: Loaded on T2 cells as part of the mixture of 19 control peptides
Test: flow cytometry, phage on T2 cells
Excerpt: as §1, §2

Row | Binder | binding result
10 | B1 | no binding
11 | B2 | no binding
12 | B3 | no binding
13 | B5 | no binding

Target: T4, control peptide A2E-4/HLA-A*02:01 complex on T2 cells (member of the P19 mixture) (human)
T4 construct: Loaded on T2 cells as part of the mixture of 19 control peptides
Test: flow cytometry, phage on T2 cells
Excerpt: as §1, §2

Row | Binder | binding result
14 | B1 | no binding
15 | B2 | no binding
16 | B3 | no binding
17 | B5 | no binding

Target: T5, control peptide A2E-5/HLA-A*02:01 complex on T2 cells (member of the P19 mixture) (human)
T5 construct: Loaded on T2 cells as part of the mixture of 19 control peptides
Test: flow cytometry, phage on T2 cells
Excerpt: as §1, §2

Row | Binder | binding result
18 | B1 | no binding
19 | B2 | no binding
20 | B3 | no binding
21 | B5 | no binding

Target: T6, control peptide A2E-6/HLA-A*02:01 complex on T2 cells (member of the P19 mixture) (human)
T6 construct: Loaded on T2 cells as part of the mixture of 19 control peptides
Test: flow cytometry, phage on T2 cells
Excerpt: as §1, §2

Row | Binder | binding result
22 | B1 | no binding
23 | B2 | no binding
24 | B3 | no binding
25 | B5 | no binding

Target: T7, control peptide A2E-7/HLA-A*02:01 complex on T2 cells (member of the P19 mixture) (human)
T7 construct: Loaded on T2 cells as part of the mixture of 19 control peptides
Test: flow cytometry, phage on T2 cells
Excerpt: as §1, §2

Row | Binder | binding result
26 | B1 | no binding
27 | B2 | no binding
28 | B3 | no binding
29 | B5 | no binding

Target: T8, control peptide A2E-8/HLA-A*02:01 complex on T2 cells (member of the P19 mixture) (human)
T8 construct: Loaded on T2 cells as part of the mixture of 19 control peptides
Test: flow cytometry, phage on T2 cells
Excerpt: as §1, §2

Row | Binder | binding result
30 | B1 | no binding
31 | B2 | no binding
32 | B3 | no binding
33 | B5 | no binding

Target: T9, control peptide A2E-9/HLA-A*02:01 complex on T2 cells (member of the P19 mixture) (human)
T9 construct: Loaded on T2 cells as part of the mixture of 19 control peptides
Test: flow cytometry, phage on T2 cells
Excerpt: as §1, §2

Row | Binder | binding result
34 | B1 | no binding
35 | B2 | no binding
36 | B3 | no binding
37 | B5 | no binding

Target: T10, control peptide A2E-10/HLA-A*02:01 complex on T2 cells (member of the P19 mixture) (human)
T10 construct: Loaded on T2 cells as part of the mixture of 19 control peptides
Test: flow cytometry, phage on T2 cells
Excerpt: as §1, §2

Row | Binder | binding result
38 | B1 | no binding
39 | B2 | no binding
40 | B3 | no binding
41 | B5 | no binding

Target: T11, control peptide A2E-11/HLA-A*02:01 complex on T2 cells (member of the P19 mixture) (human)
T11 construct: Loaded on T2 cells as part of the mixture of 19 control peptides
Test: flow cytometry, phage on T2 cells
Excerpt: as §1, §2

Row | Binder | binding result
42 | B1 | no binding
43 | B2 | no binding
44 | B3 | no binding
45 | B5 | no binding

Target: T12, control peptide A2E-13/HLA-A*02:01 complex on T2 cells (member of the P19 mixture) (human)
T12 construct: Loaded on T2 cells as part of the mixture of 19 control peptides
Test: flow cytometry, phage on T2 cells
Excerpt: as §1, §2

Row | Binder | binding result
46 | B1 | no binding
47 | B2 | no binding
48 | B3 | no binding
49 | B5 | no binding

Target: T13, control peptide A2E-14/HLA-A*02:01 complex on T2 cells (member of the P19 mixture) (human)
T13 construct: Loaded on T2 cells as part of the mixture of 19 control peptides
Test: flow cytometry, phage on T2 cells
Excerpt: as §1, §2

Row | Binder | binding result
50 | B1 | no binding
51 | B2 | no binding
52 | B3 | no binding
53 | B5 | no binding

Target: T14, control peptide A2E-15/HLA-A*02:01 complex on T2 cells (member of the P19 mixture) (human)
T14 construct: Loaded on T2 cells as part of the mixture of 19 control peptides
Test: flow cytometry, phage on T2 cells
Excerpt: as §1, §2

Row | Binder | binding result
54 | B1 | no binding
55 | B2 | no binding
56 | B3 | no binding
57 | B5 | no binding

Target: T15, control peptide A2E-16/HLA-A*02:01 complex on T2 cells (member of the P19 mixture) (human)
T15 construct: Loaded on T2 cells as part of the mixture of 19 control peptides
Test: flow cytometry, phage on T2 cells
Excerpt: as §1, §2

Row | Binder | binding result
58 | B1 | no binding
59 | B2 | no binding
60 | B3 | no binding
61 | B5 | no binding

Target: T16, control peptide A2E-17/HLA-A*02:01 complex on T2 cells (member of the P19 mixture) (human)
T16 construct: Loaded on T2 cells as part of the mixture of 19 control peptides
Test: flow cytometry, phage on T2 cells
Excerpt: as §1, §2

Row | Binder | binding result
62 | B1 | no binding
63 | B2 | no binding
64 | B3 | no binding
65 | B5 | no binding

Target: T17, control peptide A2E-19/HLA-A*02:01 complex on T2 cells (member of the P19 mixture) (human)
T17 construct: Loaded on T2 cells as part of the mixture of 19 control peptides
Test: flow cytometry, phage on T2 cells
Excerpt: as §1, §2

Row | Binder | binding result
66 | B1 | no binding
67 | B2 | no binding
68 | B3 | no binding
69 | B5 | no binding

Target: T18, control peptide A2E-21/HLA-A*02:01 complex on T2 cells (member of the P19 mixture) (human)
T18 construct: Loaded on T2 cells as part of the mixture of 19 control peptides
Test: flow cytometry, phage on T2 cells
Excerpt: as §1, §2

Row | Binder | binding result
70 | B1 | no binding
71 | B2 | no binding
72 | B3 | no binding
73 | B5 | no binding

Target: T19, control peptide A2E-23/HLA-A*02:01 complex on T2 cells (member of the P19 mixture) (human)
T19 construct: Loaded on T2 cells as part of the mixture of 19 control peptides
Test: flow cytometry, phage on T2 cells
Excerpt: as §1, §2

Row | Binder | binding result
74 | B1 | no binding
75 | B2 | no binding
76 | B3 | no binding
77 | B5 | no binding

Target: T20, PSA 146-154 peptide/HLA-A*02:01 complex on the cell surface (human)
T20 construct: also called PSA146/HLA-A*02:01; PSA146-loaded T2 cells
Test: flow cytometry, phage on T2 cells, anti-M13 + R-PE anti-mouse IgG
Excerpt: as §1, §2

Row | Binder | binding result
78 | B1 | binds
79 | B2 | binds
80 | B3 | binds
81 | B4 | binds
82 | B5 | binds
